Patent US20110190142A1, “DETERMINATION OF RENIN-PRORENIN RECEPTOR ACTIVITY” (Charite- Universitatsmedizin Berlin, priority 2006, published 2011)
Blank lines part the entries; values can stand above or below the molecule they belong to.

How the values were obtained:
[1] = tested on: renin/prorenin receptor (RER); experiment: PI3K-p85α promoter luciferase reporter assay under renin stimulation; assay type: cell-based, human; details: PLZF-overexpressing HEK293 cells, renin vs control
Protocol: (§1) The indicated cell types were seeded on day 1 in 12-well plates. 100 ng of indicated pGL3-basic constructs (encoding firefly luciferase) and 20 ng of phRL-null plasmid (encoding humanized Renilla luciferase for standardization of promoter activity; Promega) per well were transfected on day 2 at 60-80% confluency using GeneJuice (Merck Biosciences, Bad Soden, Germany) according to the manufacturer's protocol. Cells were harvested 48 hours after transfection using Passive Lysis Buffer (Promega). Reporter activities were measured in a Pharmingen Monolight 3010 luminometer (BD Biosciences, Erembodegem, Belgium) using the Dual-Luciferase Reporter Assay System (Promega). Promoter activity is expressed as relative luciferase activity (RLA) (Funke-Kaiser et al., 2003a). RLA data represent the mean±standard deviation of at least three single, parallel transfection experiments.
(§2) HEK293 cells were seeded in 24-well plates and transfected with either 100 ng of pCEP4-PLZF-myc expression vector, 50 ng of indicated pGL3-basic construct and 10 ng of phRL-null plasmid (for luciferase assay), or 100 ng of pCEP4-PLZF-myc alone (for PCR experiments) per well as described above. siRNA transfection, renin stimulation and determination of reporter activity were performed as described above, except for an exceeded renin stimulation period of 3 hours.

[2] = tested on: renin/prorenin receptor (RER); experiment: PLZF translocation, fractionated extraction of cytosolic and nuclear proteins and Western blot; assay type: cell-based, human; details: HEK293 cells, c-myc-tagged PLZF, 10 nM renin
Protocol: Cytosolic and membrane proteins were isolated using the ProteoExtract Subcellular Proteome Extraction Kit (Calbiochem, Darmstadt, Germany). A fractionated extraction of cytosolic and nuclear proteins was performed as described previously (Funke-Kaiser et al., 2003a). Protein concentrations were determined using the DC Protein Assay (Bio-Rad, München, Germany). Cytosolic, membrane and nuclear fractions were controlled by Western blot using antibodies against Akt (mouse monoclonal, 5G3; 1:1,000; Cell Signalling, Danvers, Mass., USA), angiotensin AT1 receptor (rabbit polyclonal, sc-579; 1:2,000; Santa Cruz Biotechnology, Heidelberg, Germany) and TBP (rabbit polyclonal, sc-204; 1:1,000; Santa Cruz Biotechnology), respectively.
For PLZF translocation experiments HEK293 cells were seeded on day 1 in 6-well plates. 250 ng of pCEP4-PLZF-myc expression vector per well were transfected on day 2 at 40-60% confluency using GeneJuice (Merck Biosciences, Bad Soden, Germany) according to the manufacturer's protocol. […] Chemoluminescence was detected with ECL (Amersham, München, Germany), and subsequent exposition to Hyperfilm (Amersham).

HEK293 cells [3] = experiment: Number of viable cells (ATP concentration); assay type: cell-based, human; details: for increase of viable cell number compared to vehicle: HEK293 cells, 5 nM, 24 hours
Protocol: (§3) For all cell culture studies immortalized human epithelial kidney cells (HEK293 cells) were used. […] Additional inhibition with 1 μM aliskiren was performed as indicated. 1 hour after pre-treatment with losartan±aliskiren cells were stimulated with either 5 nM renin, 5 nM prorenin, or the respective vehicle. Cells were harvested for mRNA expression analysis or determination of viable cell number and apoptosis after 3 or 24 hours, respectively. These experimental procedures have been described in detail previously (Schefe et al., 2006). All experiments were performed in independent triplicates.

[4] = tested on: renin/prorenin receptor (RER); experiment: RER mRNA by quantitative real-time PCR after renin/prorenin stimulation of HEK293 cells; assay type: cell-based, human
Protocol: as §2
(§4) RNA isolation and cDNA synthesis were performed as described above. qPCR was performed applying a SYBR Green I reaction mix and run on a Stratagene Mx3000P (Stratagene, La Jolla, Calif., USA) using the following primers: […]
(§5) Data represents the mean expression level±standard deviation (standardized to 18S rRNA expression) calculated according to the ddCT method of at least three independent measurements. Equality of PCR efficiencies has been verified applying the program LinRegPCR (Ramakers et al. 2003) and ANOVA testing.
as §3

[5] = tested on: renin/prorenin receptor (RER); experiment: PI3K-p85α mRNA by quantitative real-time PCR after renin/prorenin stimulation of HEK293 cells; assay type: cell-based, human
Protocol: as §2, §4, §5, §3

[6] = tested on: renin/prorenin receptor (RER); experiment: RER promoter luciferase reporter assay under renin stimulation; assay type: cell-based, human; details: PLZF-overexpressing HEK293 cells, renin vs all controls
Protocol: as §1, §2

[7] = target: endogenous human RER of HEK293 cells (human) (UniProt O75787); experiment: cell-based or functional assay
HEK293 cells [8] = experiment: Caspase 3/7 activity as a measure of apoptosis; assay type: cell-based, human; details: for reduction of caspase 3/7 activity: HEK293 cells, 5 nM, 24 hours
Protocol: as §3

[9] = target: T1, PLZF (promyelocytic zinc finger protein, ZBTB16), endogenous (Homo sapiens, UniProt Q05516 Q05516:1-673); experiment: ChIP-qPCR in HEK293; about 6-fold increased recruitment to the RER promoter region around the element after renin vs vehicle; details: tags: none (endogenous, HEK293)
T1 sequence: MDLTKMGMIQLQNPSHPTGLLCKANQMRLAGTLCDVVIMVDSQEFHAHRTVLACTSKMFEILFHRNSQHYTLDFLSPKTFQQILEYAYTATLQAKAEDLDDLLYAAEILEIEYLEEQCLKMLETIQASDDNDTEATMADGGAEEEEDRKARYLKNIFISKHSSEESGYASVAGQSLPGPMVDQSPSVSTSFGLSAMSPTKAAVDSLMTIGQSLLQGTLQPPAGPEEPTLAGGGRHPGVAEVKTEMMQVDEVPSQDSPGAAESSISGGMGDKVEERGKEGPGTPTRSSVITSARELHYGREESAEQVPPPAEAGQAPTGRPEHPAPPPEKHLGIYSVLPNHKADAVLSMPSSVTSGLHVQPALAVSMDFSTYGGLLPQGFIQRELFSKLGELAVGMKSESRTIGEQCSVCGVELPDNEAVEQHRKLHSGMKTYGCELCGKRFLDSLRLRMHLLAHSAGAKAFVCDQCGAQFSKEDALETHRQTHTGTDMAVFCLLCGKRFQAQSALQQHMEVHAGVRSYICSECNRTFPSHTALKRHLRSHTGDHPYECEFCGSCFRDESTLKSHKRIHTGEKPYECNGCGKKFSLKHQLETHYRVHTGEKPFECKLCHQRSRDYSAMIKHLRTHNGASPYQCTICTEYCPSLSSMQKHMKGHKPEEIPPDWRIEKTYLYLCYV

[10] = HEK293 cells, 5 nM, 3 hours, 1 μM losartan pre-treatment
[11] = HEK293 cells transfected with scrambled control siRNA

Chain of endogenous human RER of HEK293 cells (human) (O75787 17-350): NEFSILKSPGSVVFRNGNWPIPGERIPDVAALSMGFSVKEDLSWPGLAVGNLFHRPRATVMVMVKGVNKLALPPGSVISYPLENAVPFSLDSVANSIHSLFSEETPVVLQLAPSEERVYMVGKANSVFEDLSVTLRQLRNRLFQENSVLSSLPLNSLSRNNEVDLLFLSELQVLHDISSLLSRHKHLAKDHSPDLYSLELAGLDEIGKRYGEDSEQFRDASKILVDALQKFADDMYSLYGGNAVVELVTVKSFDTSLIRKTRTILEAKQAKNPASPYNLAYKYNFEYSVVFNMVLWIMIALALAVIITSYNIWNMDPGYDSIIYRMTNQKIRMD

decrease in the activity of a wild type RER promoter [6]: about 30%
PI3K-p85α mRNA (real-time PCR), HEK293 cells with PLZF overexpression [7]: 105 % increase
PI3K-p85α mRNA (real-time PCR), HEK293 cells without PLZF overexpression [7]: 30.2 % increase
PI3K-p85α mRNA after 3 hours, 5 nM renin, HEK293 cells (% of vehicle control) [7]: 172
PI3K-p85α promoter activity (luciferase reporter) in PLZF-overexpressing HEK293 cells [7]: 45 % increase
PLZF recruitment to the RER promoter (ChIP with real-time PCR) in HEK293 cells [7]: 6 fold
RER mRNA (real-time PCR) in HEK293 cells after renin stimulation combined with PLZF transfection [7]: 45.4 % of control
RER mRNA (real-time PCR) in HEK293 cells after renin stimulation, without PLZF overexpression [7]: 80.6 % of control
RER mRNA after 3 hours, 5 nM renin, HEK293 cells (% of vehicle control) [7]: 59.2
RER promoter activity (luciferase reporter) in PLZF-overexpressing HEK293 cells [7]: 30 % decrease
caspase 3/7 activity after 24 hours, 5 nM renin, HEK293 cells [7]: 31 % decrease
B1: human recombinant renin (mammalian expression) (ligand, UniProt P00797 67-406, looked up)
chain: LTLGNTTSSVILTNYMDTQYYGEIGIGTPPQTFKVVFDTGSSNVWVPSSKCSRLYTACVYHKLFDASDSSSYKHNGTELTLRYSTGTVSGFLSQDIITVGGITVTQMFGEVTEMPALPFMLAEFDGVVGMGFIEQAIGRVTPIFDNIISQGVLKEDVFSFYYNRDSENSQSLGGQIVLGGSDPQHYEGNFHYINLIKTGVWQIQMKGVSVGSSTLLCEDGCLALVDTGASYISGSTSSIEKLMEALGAKKRLFDYVVKCNEGPTLPDISFHLGGKEYTLTSADYVFQESYSSKKLCTLAIHAMDIPPPTGPTWALGATFIRKFYTEFDRRNNRIGFALAR
increase in PI3K-p85α promoter activity [1]: 45%
translocation of PLZF from the cytoplasm to the nucleus [2]: clear increase in nuclear PLZF
increase of viable cell number compared to vehicle (HEK293 cells [3]): 103.6%
RER mRNA (first column set to 100%) ([4]; HEK293 cells with PLZF overexpression (pCEP4-PLZF) plus renin stimulation): 45.4±4.7%
RER mRNA (first column set to 100%) ([4]; HEK293 cells without PLZF overexpression, renin stimulation vs vehicle): 80.6±3.3%
RER mRNA, % of vehicle control [4, 10]: 59.2%
increase of PI3K-p85α mRNA relative to vehicle control ([5]; HEK293 cells with PLZF overexpression): 105.2±6.74%
increase of PI3K-p85α mRNA relative to vehicle control ([5]; HEK293 cells without PLZF overexpression): 30.2±7.9%
PI3K-p85α mRNA, % of vehicle control [5, 10]: 171.8%
reduction of caspase 3/7 activity (HEK293 cells [8]): 31%

PI3K-p85α mRNA after 3 hours, 5 nM prorenin, HEK293 cells (% of vehicle control) [7]: 176
PI3K-p85α mRNA, prorenin, HEK293 cells with scrambled control siRNA (% of vehicle control) [7]: 213
RER mRNA after 3 hours, 5 nM prorenin, HEK293 cells (% of vehicle control) [7]: 63.6
RER mRNA, prorenin, HEK293 cells with scrambled control siRNA (% of vehicle control) [7]: 59.7
caspase 3/7 activity after 24 hours, 5 nM prorenin, HEK293 cells [7]: 35.7 % decrease
caspase 3/7 activity, prorenin, HEK293 cells with scrambled control siRNA [7]: 53.4 % decrease
B2: prorenin (ligand, UniProt P00797 24-406, looked up, species assumed)
pro-form: LPTDTTTFKRIFLKRMPSIRESLKERGVDMARLGPEWSQPMKRLTLGNTTSSVILTNYMDTQYYGEIGIGTPPQTFKVVFDTGSSNVWVPSSKCSRLYTACVYHKLFDASDSSSYKHNGTELTLRYSTGTVSGFLSQDIITVGGITVTQMFGEVTEMPALPFMLAEFDGVVGMGFIEQAIGRVTPIFDNIISQGVLKEDVFSFYYNRDSENSQSLGGQIVLGGSDPQHYEGNFHYINLIKTGVWQIQMKGVSVGSSTLLCEDGCLALVDTGASYISGSTSSIEKLMEALGAKKRLFDYVVKCNEGPTLPDISFHLGGKEYTLTSADYVFQESYSSKKLCTLAIHAMDIPPPTGPTWALGATFIRKFYTEFDRRNNRIGFALAR
modifications: pro-form
increase of viable cell number (HEK293 cells [3]; [11]): 87.5%
increase of viable cell number compared to vehicle (HEK293 cells [3]): 123.8%
RER mRNA, % of vehicle control [4, 11]: 59.7%
RER mRNA, % of vehicle control [4, 10]: 63.6%
PI3K-p85α mRNA, % of vehicle control [5, 11]: 212.8%
PI3K-p85α mRNA, % of vehicle control [5, 10]: 175.8%
viable cell number after 24 hours, 5 nM prorenin, HEK293 cells [7]: 124 % increase
viable cell number, prorenin, HEK293 cells with scrambled control siRNA [7]: 87.5 % increase
attenuation of caspase 3/7 activity (HEK293 cells [8]; [11]): 53.4%
reduction of caspase 3/7 activity (HEK293 cells [8]): 35.7%

B3: RER promoter PLZF element, native (dsDNA)
DNA 1: CTTAACTACAGTTTTCACTGG
DNA 2: CCAGTGAAAACTGTAGTTAAG
binding signal [9]: 6 fold
